Laboratory results published in paper PMC5962072, “Structural insights on the efficient catalysis of hydroperoxide reduction by Ohr: Crystallographic and molecular dynamics approaches” (PLoS ONE, 2018).

Target: Cys61 (UniProt position 61, AGYSACFIGAL)
Test: chemical modification
Conditions: room temperature; Reduced (dithiol) protein after DTT treatment and desalting; no ligand.

With “Organic hydroperoxide resistance protein (Ohr, XfOhr) (Xylella fastidiosa)” the pKa was 5.92 ± 0.11.
